Assay results published in the DeepSol protein solubility set.

Test: soluble on expression in E. coli; label from the status in PepcDB or PDB records

Sequence	soluble on expression in E. coli
MQVIHQYSNKGGKYQNRYDVSILVNGLPLVHVELKKRGVAIREAFNQIKRYKRDSFSAEDGLFDFVQIFVISNGTSSKYYSNTTRIAQLEKNHKADTFEFTNYWADSKNHNIEDLMDFAKAFFAKRSLLNVLTCYCVFTSEEVLLVMRPYQIVAAERILEKIKTAQNSKTKNQSKGYIWHTTGSGKTLTSFKSATLAKELESVSKVLFVVDRKDLDYQTMKEYDKFQKDCANSNTSTKILKEQLEDSNAKIIITTIQKLDKFVKSHKGHAIFNEEVVMIFDECHRSQLGSMHQAITKAFKKYHLFGFTGTPIFAANCDKNNPLGTTEQKFGKCLHQYTIIDAIRDKNVLPFRVEYHNTIKAKEDIKDNKVRAVDEKNALLDTRRIKEITKCILERFNQATKNKKFNSILACSSIEALKKYYQAFKEEKHDLKIAAIFSYSANEEIDTLEDENNESACRLDKSSRDFLEGAIADYNGMFGVSFDTSDQKFQSYYKDLSQKMKERKIDLLMVVNMFLTGFDATRLNTLWVDKNLKYHGLIQAFSRANRILDSVKTHGNIVCFRDLEQDLNDALMLFGNKDAQSIALLRKYEDYLKGYTDNNKEYEGYEGLIKRLLTEFPLKEPIVSESQKKDFIKLFGKILKLENILNSFENFKKDDYINPRDFQDYQSKYLDFYDAMRSEKGKDKEEINDDLIFEIELIKQVEVNIDYILNLIEEFAKEHGVEIQGVKTKIEPIINSSIELRNKKDLIMDFIDKYNKDQEVHAHFQDYIHQKREEEFQNIIEENRLNEEKAYSFMQHAFKGGEISFSGTEFPKIIEEKPSMFGKNSRYQEVKEKVAASLSRFFHRFCDLTSAIFKKNEVKKDEVNEK	not soluble
MHDISSLTTRTKTLPPLRVGVGGPVGSGKTTLLEMVCKAMYPQFDLIAITNDIYTKEDQRLLTLSGALPPERILGVETGGCPHTAIREDASINLIAIDQMLEQFPDADIVFVESGGDNLAATFSPELSDLTLYIIDVASGEKIPRKGGPGITKSDLFIINKTDLAPYVGADLAVMEADTRRMRGDKPFVMCNLKTGDGLDQVIAFLKTEGLFRGLEHHHHHH	soluble
SQVARWLGLDIPSPPIGSLFGVEIPEETGTKLEERVVDASMLSHGDLLMNLSLRDEELVILVRRGEGYRVPKGRMHLQVGDVLLIVSEKNLSQTLTSGDPENHPGLLQRLKHRLLRR	not soluble
MGHHHHHHMLENIRDAVRKFLTGSTPYEKAVDEFIKDLQKSLISSDVNVKLVFSLTAKIKERLNKEKPPSVLERKEWFISIVYDELSKLFGGDKEPNVNPTKLPFIIMLVGVQGSGKTTTAGKLAYFYKKRGYKVGLVAADVYRPAAYDQLLQLGNQIGVQVYGEPNNQNPIEIAKKGVDIFVKNKMDIIIVDTAGRHGYGEETKLLEEMKEMYDVLKPDDVILVIDASIGQKAYDLASRFHQASPIGSVIITKMDGTAKGGGALSAVVATGATIKFIGTGEKIDELETFNAKRFVSRILGMGDIESILEKVKGLEEYDKIQKKMEDVMEGKGKLTLRDVYAQIIALRKMGPLSKVLQHIPGLGIMLPTPSEDQLKIGEEKIRRWLAALNSMTYKELENPNIIDKSRMRRIAEGSGLEVEEVRELLEWYNNMNRLLKMVK	soluble
AQARMGDSRDLCPHLDSIGEVTKEDLLLKSKGTCQSCGVTGPNLWACLQVACPYVGCGESFADHSTIHAQAKKHNLTVNLTTFRLWCYACEKEVFLEQRLAAPLLGSSSKFSEQDSPPPSHPLKAVPIAVADEGESESEDDDLKPRGLTGMKNLGNSCYMNAALQALSNCPPLTQFFLECGGLVRTDKKPALCKSYQKLVSEVWHKKRPSYVVPTSLSHGIKLVNPMFRGYAQQDTQEFLRCLMDQLHEELKEPVVATVALTEARDSDSSDTDEKREGDRSPSEDEFLSCDSSSDRGEGDGQGRGGGSSQAETELLIPDEAGRVISEKERMKDRKFSWGQQRTNSEQVDEDADVDTAMAALDQPAEAQPPSPRSSSPCRTPEPDNDAHLRSSSRPCSPVHHHEGHAKLSSSPPRASPVRMAPSYVLKKAQVLSAGSRRRKEQRYRSVISDIFDGSILSLVQCLTCDRVSTTVETFQDLSLPIPGKEDLAKLHSAIYQNVPAKPGACGDSYAAQGWLAFIVEYIRRFVVSCTPSWFWGPVVTLEDCLAAFFAADELKGDNMYSCERCKKLRNGVKYCKVLRLPEILCIHLKRFRHEVMYSFKINSHVSFPLEGLDLRPFLAKECTSQITTYDLLSVICHHGTAGSGHYIAYCQNVINGQWYEFDDQYVTEVHETVVQNAEGYVLFYRKSSEEAMRERQQVVSLAAMREPSLLRFYVSREWLNKFNTFAEPGPITNQTFLCSHGGIPPHKYHYIDDLVVILPQNVWEHLYNRFGGGPAVNHLYVCSICQVEIEALAKRRRIEIDTFIKLNKAFQAEESPGVIYCISMQWFREWEAFVKGKDNEPPGPIDNSRIAQVKGSGHVQLKQGADYGQISEETWTYLNSLYGGGPEIAIRQSVAQPLGPENLHGEQKIEAETRAV	soluble
MRITHLGHSCILVEAAGQRILVDPGNLSRSWRGLTDLDAILVTHRHPDHVDPEHIGALVDANSGAVVRAEEGACHEIPALDADPVAPGDVLQIGEVRIEAVGGRHAVIHRDLEPIGNVGYLIGEGLGTILYHPGDELDETPRGVDVLACPAHAPWAAMKETVDFARSVGARHGFLIHEGLLNGRGWQLSFDRHQEMVPTTFHDLRNGQPWEVPQDLEHHHHHH	not soluble
MAHHHHHHMLCRNVSRSYSARRRCRPSVCVAFGALLVEPPQAAYLRRCAVSSRATATAASLSSDHASLSVCKRCEHTTTIATPPERVLTTKEQVDELMDSFAEACELITDAKESVGTTYFADDMEDAEKQTHDVLNRWESLQAALERKGTAEELQKVRNMYDLKIKQLKAELEAVREAGGAG	not soluble
LDSLNELAVFVDTELKIIWANKAALEYMNMGLEKAIGVCLKVAPGISGPLVEHLNLEEIFTTGEKKSGEYTAQDGRVWFAQAIPVPDEQGKIIGILQTCRDVT	not soluble
AELLLGVNIDHIATLRNARGTAYPDPVQAAFIAEQAGADGITVHLREDRRHITDRDVRILRQTLDTRMNLEMAVTEEMLAIAVETKPHFCCLVPEKRQEVTTEGGLDVAGQRDKMRDACKRLADAGIQVSLFIDADEEQIKAAAEVGAPFIEIHTGCYADAKTDAEQAQELARIAKAATFAASLGLKVNAGHGLTYHNVKAIAAIPEMHELNIGHAIIGRAVMTGLKDAVAEMKRLMLEARG	soluble
MKIGIIAAMPEELAYLVQHLDNTQEQVVLGNTYHTGTIASHEVVLVESGIGKVMSAMSVAILADHFQVDALINTGSAGAVAEGIAVGDVVIADKLAYHDVDVTAFGYAYGQMAQQPLYFESDKTFVAQIQESLSQLDQNWHLGLIATGDSFVAGNDKIEAIKSHFPEVLAVEMEGAAIAQAAHTLNLPVLVIRAMSDNANHEANIFFDEFIIEAGRRSAQVLLAFLKALD	soluble
AHHHHHHGSAELWEIVSFLDEYLKISEYPDKSSNGLQVEGKEEVNTIAFAVDACLDTIVKARAFNADMLIVHHGLIWGGVKYVKGLFAKRVKELLKSNMNLYAAHLPLDAHPEVGNNAQLLKLLGLEPKEKFGEYHGVMIGYIGEFEEEKPLPLIAQMLAEKLPVDYVKSYEFGVQEIKRVGVVSGGGGFAVEEASEKGVDLFITGEFTHEDYRAAEDLRLSVIAAGHYATETLGVKALMPILREKFGVKTIFIDSPTGL	not soluble
MSLAEINKNEVDIVIGALNADLTQFLTSWRPFFSGFHLIVVKDPELKEELNIPEGFDVDVYSKTDMEKVVGASNSTMFSGYSCRYFGYLVSKKKYIVSIDDDCVPAKDPKGFLVDAVTQHVINLENPATPLFFNTLYDPYCEGADFVRGYPFSLRSGVPCAASCGLWLNLADLDAPTQALKTEKRNTAYVDAVMTVPAKAMLPISGINIAFNRELVGPALVPALRLAGEGKVRWETLEDVWCGMCLKHISDHLGYGVKTGLPYVWRNERGDAVESLRKKWEGMKLMEKSVPFFDSLKLPETALKVEDCVIELAKAVKEQLGSDDPAFTQAADAMVKWVQLWNSVNSSA	soluble
MSLNKELIQHAAYAAIERILNEYFREENLYQVPPQNHQWSIQLSELETLTGEFRYWSAMGHHMYHPEVWLIDGKSKKITTYKEAIARILQHMAQSADNQTAVQQHMAQIMSDIDNSIHRTARYLQSNTIDYVEDRYIVSEQSLYLGHPFHPTPKSASGFSEADLEKYAPECHTSFQLHYLAVHQDVLLTRYVEGKEDQVEKVLYQLADIDISEIPKDFILLPTHPYQINVLRQHPQYMQYSEQGLIKDLGVSGDSVYPTSSVRTVFSKALNIYLKLPIHVKITNFIRTNDLEQIERTIDAAQVIASVKDEVETPHFKLMFEEGYRALLPNPLGQTVEPEMDLLTNSAMIVREGIPNYHADKDIHVLASLFETMPDSPMSKLSQVIEQSGLAPEAWLECYLNRTLLPILKLFSNTGISLEAHVQNTLIELKDGIPDVCFVRDLEGICLSRTIATEKQLVPNVVAASSPVVYAHDEAWHRLKYYVVVNHLGHLVSTIGKATRNEVVLWQLVAHRLMTWKKEYANNAVFVDCVEDLYQTPTIAAKANLMSKLNDCGANPIYTHIPNPICHNKEVSYCESEGHHHHHH	soluble
MSLDSYRTARLMQEGVTYPVIVRPHNQILENRINRIIRETAEELLPSGRYRTMNIITAASEYETTVNKNEILSIRFENYYYPEMMASGITVVRAVTLNLVTGRRYRLKDLFIPGIDYEDYLNRLIERQIEERDIPLINDFPGITGNEVFYLTEGELVIVYQRYELTPGYYGVLEFEIPYEELQPLIDETSPIYMIAQNSEGHHHHHH	soluble
MSLRKRIIEVSTDYKILIVDDEEGIINSMKVMLTRSGYFCMGISNPLEAIETLKKEHFDMLILDYIMSPIHGDEVVAKIREFNKDIYILLLTGHKDLAPPLETIKALDIQGYCEKGDKFDQLLLLIESGIKSISQMRTIRQFKDGLNRILQAVPKIYQLQPIGVILEEILQGLMPLVNSKDAFILVDDCNSGEGKIIFKGVGEYDIKAESLVTMLSPELMENIGRARDSKKVLLLDHGIILPLTNEQNKSIGVIYIESSNLGDGIKLLEIYSTQAASSINNAFLHSLINMKKEELDRTYQELRKRYIDTIEALRLTVDAKDIYTRGHSDRVAYYAVKLGEAFGLPEDQLELLKVGGIFHDIGKIGTADDILFKTDKLSYDEYEEIKKHPLKGAYILSAISMFKDVVPLVKYHHERIDGKGYPEGLKGDEIPFLARILTVADAFDAMMSDRKYRSKLSLEETKEQFRLYSGTQFDPQVVEKLFEILENYDLMLEELSKTFTEGHHHHHH	soluble
MEELGYVTDAEINAKLAELKGKVPSVVINELREKLMAKKDSLTPRQLDEIVKRVLEAYGSQAAKYEQISKRVDELGKKLSDLSSQLARLVEALEEKKFAVHEKKAEAVAEKAAEVSEKIEKIEEMLEEKPRKSEIEKKLEELHRKIEELSERVAKEKVEETKARIEELEEKIAKGEEIKPEEIKEIEEEVEELGEFEEAPVEEIVVEEEKPPEPVEEVPVVEEKKEEVIEEVPVEEVVEEEKVPSHVVEEEKVEEEGGREMAEKMKIPEDIASLLFEEEPRKARLEEIPDDVVSIMIALKWLGFLIDRVGIQNLEKVLEFYYDIGWISEKVFNQLLRFAKGTRPHHRDPEWKPAEKLTVQDHLISLLFIERLRGLRITRDVLDKLEREIKMLEKTLDEFYGV	not soluble
MIKDYLIETMNQDEVNLAITWAAQEGWNPGIHDATCFYQTDPHGFFAGKLNGKTIAIGSAVIYDDFFAFCGFYIVDKSYRDQGYGLELTKARLAYIGNRNAGIDGVINMLDKYARIGYQLAHNNARYCLNKTIKPISSEPHIVPLNQIDFSQLSSYDRLHFPAPRPQFLKCWINQPQSLALAYLIDGQIKGYGVIRTCHKGFKIGPLFAGTPEIAHQLFSNLVPYAKGQLIFLDIPENNPLAIELVSQYQMKKVFATARMYLKGEPPVKKESIYGITTFELG	not soluble
